B1: STK38L (parent)
chain: FLPGGDMMTLLMKKDTLTEEETQF

Variants of: B1
Assay: protein stability index of a GFP-peptide fusion (GPS, HEK-293T) (PSI 1-6); higher = more stable
Details: c terminus: a fixed tail appended
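Note: lentivirally expressed fusions sorted by FACS into six bins by GFP to DsRed ratio, PSI derived from sequencing read proportions per bin multiplied by bin number.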

| Variant | protein stability index |
| --- | --- |
| FLPGGDMMVLLMKKDTLTEEETQF | 1.81 |
| FLPHGDMMTLLMKKDTLTEEETQF | 3.29 |
| FLPGGDMMTLLMKKDTLGEEETQF | 2.01 |
| HLPGGDMMTLLMKKDTLTEEETQF | 4.48 |
| FLPGGDMMTSLMKKDTLTEEETQF | 4.07 |
| FLPGGYMMTLLMKKDTLTEEETQF | 2.42 |
| FLPGGDMMTLLMKKDTLTSEETQF | 2.61 |
| FLPGGDMMTLLMKKDTLTEEETQT | 2.42 |
| FLPGGDMMTLLMKKDTLTKEETQF | 1.97 |
| FLPGGDMMTLLMKKDTLTEEETQY | 2.52 |
| FLRGGDMMTLLMKKDTLTEEETQF | 2.76 |
| FLPGGDMMDLLMKKDTLTEEETQF | 4.35 |
| FLPGGDMITLLMKKDTLTEEETQF | 2.22 |
| FNPGGDMMTLLMKKDTLTEEETQF | 3.32 |
| FLPGGDMMTLLMKKDTLCEEETQF | 1.57 |
| FLPGGDMMILLMKKDTLTEEETQF | 2.19 |
| FLPGGDMMTLLMKKDTLTEEHTQF | 1.81 |
| FLPGGDMMTLLMEKDTLTEEETQF | 3.03 |
| FLPGGDMMTLLMKKDTLTEWETQF | 1.66 |
| FLPGGDMMTLKMKKDTLTEEETQF | 3.91 |
| GLPGGDMMTLLMKKDTLTEEETQF | 4.51 |
| FLPGGDMMTLLMKKDTLTEEETQH | 2.44 |
| FLPGGDMMTLLMKKDTLTDEETQF | 2.42 |
| FLPGGDMMTLLMKKDTLTEEEVQF | 2.23 |

| Variant | protein stability index |
| --- | --- |
| ALPGGDMMTLLMKKDTLTEEETQF | 4.91 |
| FLKGGDMMTLLMKKDTLTEEETQF | 2.91 |
| FLPGGDMMTLLMKKDTLTEEETDF | 3.06 |
| FLPGGDMMTLLMKKDPLTEEETQF | 3.02 |
| FLPGGDMMTHLMKKDTLTEEETQF | 3.38 |
| FLPGGDMMTLLMKKDTLTEEEDQF | 2.12 |
| FLPGGDMMTLLMKWDTLTEEETQF | 1.7 |
| FLPGGDMMTLLMKKDTLTEEEHQF | 2.06 |
| FLPGGDMMMLLMKKDTLTEEETQF | 3.26 |
| FHPGGDMMTLLMKKDTLTEEETQF | 1.91 |
| FLPGGDMMTLLMKKDTGTEEETQF | 2.37 |
| FLPGGDMMTLLMKHDTLTEEETQF | 2.38 |
| FLPGGDMMTLLMKKDTLIEEETQF | 1.58 |
| FLPGGDMMTLLMKKDTLMEEETQF | 1.7 |
| FLPGGDMMTLLMKKDWLTEEETQF | 1.96 |
| FLPGGDMMTLLMKKDTLTQEETQF | 2.12 |
| FLPGGDMMTLLMKKDTLTEENTQF | 1.84 |
| CLPGGDMMTLLMKKDTLTEEETQF | 4.39 |
| FLPGGQMMTLLMKKDTLTEEETQF | 1.96 |
| FLPGGDMMTLLMKKDTLTEPETQF | 1.82 |
| FLPGGDMMTLLMKKDTLTEEETQK | 2.53 |
| FLPGGDMMTLLMKKDTLQEEETQF | 2.34 |
| FLPGGDMHTLLMKKDTLTEEETQF | 3.95 |
| FLPGGDMMTGLMKKDTLTEEETQF | 3.79 |

| Variant | protein stability index |
| --- | --- |
| FLPGGDMMTLLTKKDTLTEEETQF | 3.49 |
| FLPGGDMMTLLMKDDTLTEEETQF | 2.92 |
| FLPGGDMMTLLMKKDTLTESETQF | 1.68 |
| FDPGGDMMTLLMKKDTLTEEETQF | 4.38 |
| FLPGGDMMTLLMKKDTLTEEETYF | 1.88 |
| FLPGGDMMTLLMKKDTLLEEETQF | 2.15 |
| FLPGGDMMTLLMKADTLTEEETQF | 2.48 |
| FLVGGDMMTLLMKKDTLTEEETQF | 2.08 |
| FLPGGDMMTLLMKKDTLTEEESQF | 2.37 |
| FLPGGDMMTLLMRKDTLTEEETQF | 2.21 |
| FLPGGDMMTLLMKKDTLTEEETQL | 3.02 |
| FLPGGDMMTLLMKKDALTEEETQF | 2.4 |
| ELPGGDMMTLLMKKDTLTEEETQF | 4.92 |
| FLPGGDMMTLLMKKDELTEEETQF | 2.19 |
| FLPGGDMMTLLMCKDTLTEEETQF | 1.67 |
| FLNGGDMMTLLMKKDTLTEEETQF | 1.89 |
| FLPGYDMMTLLMKKDTLTEEETQF | 2.63 |
| FLPGGDMMTLLMKKDTNTEEETQF | 2.78 |
| FLPGGDMKTLLMKKDTLTEEETQF | 3.66 |
| FLPGGDMMTLLMKKDTLTCEETQF | 1.73 |
| FLPGGDMMTLLMKKDTLTHEETQF | 2.01 |
| FLPGGDMMTPLMKKDTLTEEETQF | 3.9 |
| FLPDGDMMTLLMKKDTLTEEETQF | 3.84 |
| FLPGGDMMTLLMKKDTRTEEETQF | 2.39 |

| Variant | protein stability index |
| --- | --- |
| FLPGGDMMTLLMKKDYLTEEETQF | 2.24 |
| FLPGGDMMTLAMKKDTLTEEETQF | 3.29 |
| FLPGGDMMTLLMKRDTLTEEETQF | 1.96 |
| FLPGGDMMTLLMKKDTLTGEETQF | 2.35 |
| FLPGGDMMTLLMKKDTLTEEATQF | 1.94 |
| FLSGGDMMTLLMKKDTLTEEETQF | 1.4 |
| FLPGGDMMTLLMIKDTLTEEETQF | 1.87 |
| FLPGGDMMTLLMKKDTHTEEETQF | 2.26 |
| FSPGGDMMTLLMKKDTLTEEETQF | 2.6 |
| FLPGGDMMTLLAKKDTLTEEETQF | 2.81 |
| FLPGGRMMTLLMKKDTLTEEETQF | 2.18 |
| FLPGGDMMTLLMKKDTLKEEETQF | 2 |
| FLPGGDMMTLLMKKDTLTEEETQR | 2.09 |
| FLPGGDMMTLLMKYDTLTEEETQF | 2.09 |
| RLPGGDMMTLLMKKDTLTEEETQF | 4.39 |
| FLPGGDMMTLLMKKDTLTEGETQF | 1.6 |
| FLPGGDMMTLLMKKETLTEEETQF | 3.01 |
| FLPGGDMMTLLMKKDTLTEEERQF | 2.37 |
| FLPGGDMMTLLMDKDTLTEEETQF | 3.66 |
| FLPGGDMMTLLMYKDTLTEEETQF | 2.02 |
| FLPGGDMMTLLMKKDTLTLEETQF | 1.62 |
| FLPGADMMTLLMKKDTLTEEETQF | 2.63 |
| FLPGGDMMTLLMKKDTLTEEETQP | 2.64 |
| FLPGGDMMTLLMKKDTLTEELTQF | 1.56 |

| Variant | protein stability index |
| --- | --- |
| FLPGIDMMTLLMKKDTLTEEETQF | 2.63 |
| FLPGGHMMTLLMKKDTLTEEETQF | 1.72 |
| FLPGGDMMTLLMGKDTLTEEETQF | 2.3 |
| FLPGGIMMTLLMKKDTLTEEETQF | 1.85 |
| FLPGGDMMTLLSKKDTLTEEETQF | 3.48 |
| FLPGGDMMTLLMKKDTLTEEEQQF | 2.21 |
| FLPGGDMMTLLMKKDTLTEAETQF | 1.86 |
| FLPWGDMMTLLMKKDTLTEEETQF | 1.82 |
| FLPGGDMMTLLMKKDTLTEEEAQF | 2.53 |
| FLPGGDMMTLLMKKDTLTEEETGF | 2.61 |
| FLPGGDMMTLLMKKDTLTERETQF | 1.95 |
| FLPAGDMMTLLMKKDTLTEEETQF | 2.78 |
| FLPGGDMMTLLMKKDTLTEEETIF | 2.12 |
| FPPGGDMMTLLMKKDTLTEEETQF | 2.65 |
| FLPGGCMMTLLMKKDTLTEEETQF | 2.24 |
| FLPGGDVMTLLMKKDTLTEEETQF | 2.85 |
| FLPGGDMMTLLMKFDTLTEEETQF | 2.39 |
| FLPGGDMMTLLWKKDTLTEEETQF | 1.95 |
| FLPGGDMMTLPMKKDTLTEEETQF | 3.89 |
| FLPGGDMMTLLMVKDTLTEEETQF | 1.95 |
| FLPGGDNMTLLMKKDTLTEEETQF | 3.05 |
| FLPGGDMFTLLMKKDTLTEEETQF | 1.84 |
| FLDGGDMMTLLMKKDTLTEEETQF | 2.12 |
| FLPGGDMMTDLMKKDTLTEEETQF | 4.67 |

| Variant | protein stability index |
| --- | --- |
| FLPGGDMMTLLMKKDTLYEEETQF | 2.18 |
| FLPGGDMMTLLMKKDTLTEEETQQ | 2.58 |
| FLPGGDMMTLYMKKDTLTEEETQF | 2.41 |
| FLPGGDMMGLLMKKDTLTEEETQF | 2.71 |
| FLPGGAMMTLLMKKDTLTEEETQF | 1.7 |
| FLPGGDMMTLLMKIDTLTEEETQF | 1.96 |
| FLPGGSMMTLLMKKDTLTEEETQF | 2.07 |
| FLPGGEMMTLLMKKDTLTEEETQF | 2.02 |
| FLPGGDMMTLLRKKDTLTEEETQF | 3.48 |
| FLPFGDMMTLLMKKDTLTEEETQF | 2.41 |
| FLPGGDMMTLLMKKGTLTEEETQF | 2.05 |
| FLPGGPMMTLLMKKDTLTEEETQF | 1.87 |
| FLPGGDMMTLLMKKDHLTEEETQF | 2.48 |
| FLPGGDMMTLLMTKDTLTEEETQF | 2.69 |
| FLPGGDMMTLLMKKDTLTEEEEQF | 3.21 |
| FLPGGDMMTLLMKKDTKTEEETQF | 2.51 |
| FLPGGDMMPLLMKKDTLTEEETQF | 4.22 |
| FLPGGDMMTLLMKKDTLNEEETQF | 2.24 |
| FLPGGDMMTLLMKKDTLTEEETQN | 2.65 |
| FLPGGDMLTLLMKKDTLTEEETQF | 2.06 |
| FLPGGDMMTLLMKKDTLTEEYTQF | 1.88 |
| FLPGGDMMTLLMKKDTATEEETQF | 2.95 |
| FLPGGDMMTLLMNKDTLTEEETQF | 2.49 |
| FLPGGDMMTLLMKKDRLTEEETQF | 2.11 |

| Variant | protein stability index |
| --- | --- |
| FLPGGDMMTLLMKKDTLTEEETTF | 2.09 |
| FLPGGDMMTLLMKKDTLTEERTQF | 2.21 |
| FLWGGDMMTLLMKKDTLTEEETQF | 2.55 |
| FLPGDDMMTLLMKKDTLTEEETQF | 4.23 |
| FLPGGDMMTVLMKKDTLTEEETQF | 2.98 |
| FLPGGDMMTLLMKKDTTTEEETQF | 2.63 |
| FLPGGDMMTLMMKKDTLTEEETQF | 2.56 |
| FLPGGDMMTLLMKKDTLTEEEKQF | 2.18 |
| FLPGGDMMTLLMKQDTLTEEETQF | 2.18 |
| FLPGGDMMTLLMKKFTLTEEETQF | 1.94 |
| FLPGGDMMTLLMKKCTLTEEETQF | 2.16 |
| FLPGGDMMTLLMKKDTCTEEETQF | 2.36 |
| FLPGGDYMTLLMKKDTLTEEETQF | 2.81 |
| FLPGGDMMTLLMKKDTLTYEETQF | 1.9 |
| FLPEGDMMTLLMKKDTLTEEETQF | 3.57 |
| FLHGGDMMTLLMKKDTLTEEETQF | 1.98 |
| FLPGGDMMTLLMKKDDLTEEETQF | 2.58 |
| FLPGGDMMTLLMKKDSLTEEETQF | 2.13 |
| FLPGGDMMTLLMKKDTLTEEETFF | 1.24 |
| FLPGTDMMTLLMKKDTLTEEETQF | 3.44 |
| FLPGGDMMTLLMKKDTLTEEETPF | 2.21 |
| FLPGGVMMTLLMKKDTLTEEETQF | 2.33 |
| FLPGGDMMTLLMKKDTLTEYETQF | 2.08 |
| FLPGGDMMTLLMKKDTLTEEEPQF | 1.69 |

| Variant | protein stability index |
| --- | --- |
| FLPGGDMMTLLMKKDGLTEEETQF | 2.43 |
| FLPGGDMMTNLMKKDTLTEEETQF | 4.26 |
| FLPGGDMMTLLMKKDTLTEEETLF | 1.74 |
| FLPGGTMMTLLMKKDTLTEEETQF | 1.82 |
| FLPLGDMMTLLMKKDTLTEEETQF | 2.42 |
| FKPGGDMMTLLMKKDTLTEEETQF | 4.24 |
| FLPGQDMMTLLMKKDTLTEEETQF | 2.72 |
| FLPGGDMMTLLIKKDTLTEEETQF | 2.56 |
| FLPGGDMMTELMKKDTLTEEETQF | 4.71 |
| FLPGGDMMTLLMKKLTLTEEETQF | 2.56 |
| NLPGGDMMTLLMKKDTLTEEETQF | 4.66 |
| FLGGGDMMTLLMKKDTLTEEETQF | 2.96 |
| TLPGGDMMTLLMKKDTLTEEETQF | 4.68 |
| FLPGGDMMTLLMKCDTLTEEETQF | 2.55 |
| FLPGGDHMTLLMKKDTLTEEETQF | 3.72 |
| FLPGGDMMTLLMKVDTLTEEETQF | 1.62 |
| FLPGGNMMTLLMKKDTLTEEETQF | 2.69 |
| FLPGGKMMTLLMKKDTLTEEETQF | 1.98 |
| FLPNGDMMTLLMKKDTLTEEETQF | 2.76 |
| FMPGGDMMTLLMKKDTLTEEETQF | 2.33 |
